Laboratory results taken from publication PMC7020344, “The eEF2 kinase-induced STAT3 inactivation inhibits lung cancer cell proliferation by phosphorylation of PKM2” (Cell Communication and Signaling : CCS, 2020).
Where “and” joins values, the source holds several entries; their conditions need not be identical. Equal values may be shown once.

Target: the molecule itself
Assay: cross-linking; A549 cells washed with PBS pH 8.0 and treated with BS3 for 1 h at room temperature before lysis in loading buffer; dimers and tetramers by immunoblot; cells with eEF2K depletion, overexpression or A484954

B1: FLAG-PKM2 T129A (enzyme)
chain: not shown
notes: human PKM2 from the vector pWZL-FLAG-PKM2 (Addgene #20585) with the point mutation T129A made by PCR mutagenesis; source: A549 cells expressing it, in cells (cross-linked with BS3 before lysis)
Q: How did the “stoichiometry N” value turn out when B1 was run?
A: The value was 4 and 2.
